Data: article PMC3894216 (PLoS Pathogens, 2014)

Biological target: the molecule itself
Experiment: SDS-stable oligomer band of the purified protein

B1: GST-CNF1 N-terminal fragment (aa 1-342) (domain or fragment)
chain: MGNQWQQKYLLEYNELVSNFPSPERVVSDYIKNCFKTDLPWFSRIDPDNAYFICFSQNRSNSRSYTGWDHLGKYKTEVLTLTQAALINIGYRFDVFDDANSSTGIYKTKSADVFNEENEEKMLPSEYLHFLQKCDFAGVYGKTLSDYWSKYYDKFKLLLKNYYISSALYLYKNGELDEREYNFSMNALNRSDNISLLFFDIYGYYASDIFVAKNNDKVMLFIPGAKKPFLFKKNIADLRLTLKELIKDSDKQQLLSQHFSLYSRQDGVSYAGVNSVLHAIENDGNFNESYFLYSNKTLSNKDVFDAIAISVKKRSFSDGDIVIKSNSEAQRDYALTILQTIL
  stoichiometry N: 4
